Data from US5360895A, “Derivatized gold clusters and antibody-gold cluster conjugates” (priority 1992, dated 1994).

Tests used:
[1] = Thermal stability of gold clusters; type: physicochemical
[2] = tested on: human colon carcinoma; assay: In vivo biodistribution of radiogold cluster 17-1A conjugates in nude mice bearing human tumors; conditions: 24 hr after injection; for blood, % of injected dose per gram of tissue / bone, % of injected dose per gram of tissue / gut, % of injected dose per gram of tissue / heart, % of injected dose per gram of tissue / kidneys, % of injected dose per gram of tissue / liver, % of injected dose per gram of tissue / lung, % of injected dose per gram of tissue / muscle, % of injected dose per gram of tissue / spleen, % of injected dose per gram of tissue / stomach, % of injected dose per gram of tissue / tumor, % of injected dose per gram of tissue: normalized to 25 g animals
Protocol: Nude mice bearing human colon carcinoma or melanoma tumors were injected with radioactive gold clusters conjugated to anti-tumor antibodies. Two antibodies were gold labeled, one (17-1A) against the human colon carcinoma and another non-relevant antibody, H2 4B5 anti-influenza. The non-relevant tumor (melanoma) and non-relevant gold conjugated antibody (H2 4B5) served as controls. A total of 53 mice were used. In order to assess the efficacy of using gold labeled Fab' versus whole IgG, both types of antibody were labeled and tested. In addition, two crosslinking arms between the gold cluster and antibody were used, one, as described in the preparation example, was N-methoxycarbonyl maleimide (NMCM), whereas the other was n-maleimidobenzoyl-N-hydroxysuccinimide ester (MBS), This was to test if a different covalent crosslinker between the gold cluster and antibody or antibody fragment yielded conjugates with different stabilities or body distributions in vivo.
In vivo biodistribution of radiogold cluster 17-1A conjugates. Data,
after injection is expressed in % of injected dose per gram of tissue.
Tumor to normal tissue ratios are given in parentheses. Three or four
sample were averaged; normalized to 25 g animals.

[3] = tested on: human colon carcinoma cells; assay: Radioimmunoassay, cell binding of gold labeled F(ab')2 to cultured human colon carcinoma cells; type: cell-based; conditions: 17-1A; in words
Protocol: (§1) Both of these methods were used to prepare F(ab')2 -Au11 conjugates using 17-1A mouse monoclonal antibody which is specific for human colorectal tumors. After preparation, this labeled antibody was tested to find if its immunoreactivity had been altered. A radioimmunoassay was performed using cell binding to cultured human colon carcinoma cells and to melanoma cells (the control).

[4] = tested on: melanoma cells; assay: Radioimmunoassay, cell binding of gold labeled F(ab')2 to melanoma cells (control); type: cell-based; conditions: 17-1A; in words
Protocol: as §1

[5] = tested on: melanoma cells (WM164); assay: In vitro cell binding of 17-1A-Au11 conjugates, control melanoma (radioactivity of gold); conditions: for % bound to control cells (melanoma): percent of applied radioactive gold bound after incubation and washing, average ± s.d. of 2 samples
Protocol: (§5) The 17-1A Fab' fragment-(radioactive gold)-undecagold cluster conjugate was incubated in vitro with tumor cells (LS180- a cell culture of human colon carcinoma) and non tumor cells (WM164 - a cell culture of melanoma as control) and the radioactivity of the gold was used to assay binding.
(§6) bound to cells after incubation and washing.
(§7) entry is an average (+ s.d.) of 2 samples.

[6] = tested on: human colon carcinoma cells (LS180); assay: In vitro cell binding of 17-1A-Au11 conjugates, human colon carcinoma (radioactivity of gold); conditions: for % bound to tumor cells (human colon carcinoma): percent of applied radioactive gold bound after incubation and washing, average ± s.d. of 2 samples
Protocol: as §5, §6, §7

[7] = tested on: Human colon carcinoma cells (cell line LS180); assay: Silver enhanced staining of human colon carcinoma cells, light microscope; type: cell-based; conditions: approximately 45 minutes developer
Protocol: Human colon carcinoma cells (cell line LS180) were grown in tissue culture media. The cells were harvested with a brief trypsin treatment and centrifuged. They were then resuspended in phosphate buffered saline with 5% IgG free horse serum.
(§2) Assuming each call has approx. 10^6 antibody binding sites, a ten fold molar excess over this of undecagold cluster-labeled 17-1A monoclonal antibody was applied. Cells were incubated at room temperature for one hour on a wrist shaker device. The cells were then centrifuged at 1100 rpm for 5 minutes and the supernatent discarded. Additional buffer was added to resuspend the cells and after 3 minutes they were centrifuged again. Three of these washes were done. As a control, melanoma cells (cell line WM 164) were also prepared in a similar fashion. Cells were concentrated onto glass microscope slides using a Cytospin device. […] UV exposure for 5 minutes prior to development enhanced this color.

[8] = tested on: melanoma cells (cell line WM 164); assay: Silver enhanced staining of control melanoma cells, light microscope; type: cell-based; conditions: approximately 45 minutes developer
Protocol: as §2

[9] = tested on: colorectal carcinoma cells; assay: In vitro test of Fab'-Au11 with colorectal carcinoma cells, radiolabeled second antibody; type: cell-based, human
Protocol: (§3) The antibody used is "17-1A", commercially available from Centocor, Inc. These antibody-cluster conjugates were also assayed by electron microscopy, high pressure liquid chromatography, and spectroscopy and appeared to follow the normal course of results indicated in Examples 4 and 5. The number of gold clusters bound to each Fab' in this example was 0.7-1.0.
(§4) The in vitro test involved incubating the Fab'-Au11 with either colorectal carcinoma cells or a control melanoma for one hour, centrifugation to isolate the cell-bound antibody, and assay of the bound antibody with a second antibody [to F(ab')2 ] which was itself radiolabeled with iodine. A titer curve was produced.

[10] = tested on: control melanoma; assay: In vitro test of Fab'-Au11 with control melanoma, radiolabeled second antibody; type: cell-based; conditions: preliminary in vitro testing, 17-1A
Protocol: as §3, §4

Molecule	Tumor to normal tissue ratio, blood [2]	Tumor to normal tissue ratio, bone [2]	Tumor to normal tissue ratio, gut [2]	Tumor to normal tissue ratio, heart [2]	Tumor to normal tissue ratio, kidneys [2]	Tumor to normal tissue ratio, liver [2]	Tumor to normal tissue ratio, lung [2]	Tumor to normal tissue ratio, muscle [2]	Tumor to normal tissue ratio, spleen [2]	Tumor to normal tissue ratio, stomach [2]	blood, % of injected dose per gram of tissue [2]	bone, % of injected dose per gram of tissue [2]	gut, % of injected dose per gram of tissue [2]	heart, % of injected dose per gram of tissue [2]	kidneys, % of injected dose per gram of tissue [2]	liver, % of injected dose per gram of tissue [2]	lung, % of injected dose per gram of tissue [2]	muscle, % of injected dose per gram of tissue [2]	spleen, % of injected dose per gram of tissue [2]	stomach, % of injected dose per gram of tissue [2]	also measured
Au55 [P(PhCONHCH3)3 ]11 P(PhCONHCH3)2 [derivatized Au55 cluster, Au55 [P(PhCONHCH3)3 ]11 P(PhCONHCH3)2 [PhCONH(CH2)3 N(CO)2 (CH)2 ]]	–	–	–	–	–	–	–	–	–	–	–	–	–	–	–	–	–	–	–	–	temperature above which the cluster deteriorates rapidly [1]: above 70 °C
F(ab')2 -Au11: F(ab')2 -Au11 conjugate of 17-1A mouse monoclonal antibody specific for human colorectal tumors (conjugate, chains of the INN, looked up, F(ab')2 undecagold cluster label, F(ab')2 -Au11 conjugate of 17-1A mouse monoclonal antibody specific for human colorectal tumors) VH: QVQLQQSGAELVRPGTSVKVSCKASGYAFTNYLIEWVKQRPGQGLEWIGVINPGSGGTNYNEKFKGKATLTADKSSSTAYMQLSSLTSDDSAVYFCARDGPWFAYWGQGTLVTVSA VL: NIVMTQSPKSMSMSVGERVTLTCKASENVVTYVSWYQQKPEQSPKLLIYGASNRYTGVPDRFTGSGSATDFTLTISSVQAEDLADYHCGQGYSYPYTFGGGTKLEIK	1.5	3.5	5.3	3.4	0.1	0.8	1.8	8.6	1.3	9.1	5.6 ± 0.4 % of injected dose per gram of tissue	2.4 ± 0.2 % of injected dose per gram of tissue	1.6 ± 0.2 % of injected dose per gram of tissue	3.2 ± 0.4 % of injected dose per gram of tissue	117.0 ± 20 % of injected dose per gram of tissue	10.5 ± 0.4 % of injected dose per gram of tissue	4.6 ± 0.1 % of injected dose per gram of tissue	0.98 ± 0.08 % of injected dose per gram of tissue	6.4 ± 0.8 % of injected dose per gram of tissue	0.93 ± 0.19 % of injected dose per gram of tissue	tumor, % of injected dose per gram of tissue [2]: 8.4 ± 0.6 % of injected dose per gram of tissue; binding to the tumor cells versus native unlabeled F(ab')2 [3]: virtually identical binding to the tumor cells as did native unlabeled F(ab')2; binding to the control cells [4]: no binding to the control cells; radioactive gold on the non-tumor cells ([5]; WM164, text statement on Table 1, "or background for F(ab')2"): < 0.4%; % bound to control cells (melanoma) [5]: 0.30 ± 0.03%; % bound to tumor cells (human colon carcinoma) [6]: 16.13 ± 0.02%
undecagold cluster-labeled 17-1A monoclonal antibody: undecagold cluster-labeled 17-1A monoclonal antibody (conjugate, chains of the INN, looked up, undecagold cluster label) VH: QVQLQQSGAELVRPGTSVKVSCKASGYAFTNYLIEWVKQRPGQGLEWIGVINPGSGGTNYNEKFKGKATLTADKSSSTAYMQLSSLTSDDSAVYFCARDGPWFAYWGQGTLVTVSA VL: NIVMTQSPKSMSMSVGERVTLTCKASENVVTYVSWYQQKPEQSPKLLIYGASNRYTGVPDRFTGSGSATDFTLTISSVQAEDLADYHCGQGYSYPYTFGGGTKLEIK	–	–	–	–	–	–	–	–	–	–	–	–	–	–	–	–	–	–	–	–	staining of cells after silver developer [7]: became brown in color, easily identifiable in the light microscope; staining of control cells after silver developer [8]: clear and showed virtually no staining
Fab'-Au11: 17-1A monoclonal antibody Fab' fragment covalently coupled to the undecagold cluster (radioactive gold in Tables 1 and 2) (conjugate, chains of the INN, looked up, Fab' undecagold cluster label) VH: QVQLQQSGAELVRPGTSVKVSCKASGYAFTNYLIEWVKQRPGQGLEWIGVINPGSGGTNYNEKFKGKATLTADKSSSTAYMQLSSLTSDDSAVYFCARDGPWFAYWGQGTLVTVSA VL: NIVMTQSPKSMSMSVGERVTLTCKASENVVTYVSWYQQKPEQSPKLLIYGASNRYTGVPDRFTGSGSATDFTLTISSVQAEDLADYHCGQGYSYPYTFGGGTKLEIK	1.9	6.6	5.	3.7	0.06	1.0	2.5	13.2	2.3	11.2	3.4 ± 0.3 % of injected dose per gram of tissue	0.97 ± 0.02 % of injected dose per gram of tissue	1.3 ± 0.1 % of injected dose per gram of tissue	1.7 ± 0.1 % of injected dose per gram of tissue	103.0 ± 32 % of injected dose per gram of tissue	5.6 ± 0.5 % of injected dose per gram of tissue	2.5 ± 0.04 % of injected dose per gram of tissue	0.48 ± 0.06 % of injected dose per gram of tissue	2.8 ± 0.4 % of injected dose per gram of tissue	0.57 ± 0.14 % of injected dose per gram of tissue	tumor, % of injected dose per gram of tissue [2]: 6.4 ± 1.1 % of injected dose per gram of tissue; antibody activity and specificity ([9]; one hour incubation, titer curve): antibody activity and specificity were preserved; specificity for the tumor ([9]; preliminary in vitro testing, 17-1A): retains its specificity for the tumor; binding to a control melanoma [10]: does not bind to a control melanoma; % bound to control cells (melanoma) [5]: 1.92 ± 0.17%; localization of radioactive gold on tumor cells ([6]; LS180 cells, in words): localized completely on the tumor cells; % bound to tumor cells (human colon carcinoma) [6]: 7.80 ± 0.52%
IgG-Au11: 17-1A whole IgG labeled with monomaleimidopropyl undecagold cluster, about 2 Au clusters per IgG (conjugate, chains of the INN, looked up, undecagold cluster label, 17-1A whole IgG labeled with monomaleimidopropyl undecagold cluster, about 2 Au clusters per IgG) VH: QVQLQQSGAELVRPGTSVKVSCKASGYAFTNYLIEWVKQRPGQGLEWIGVINPGSGGTNYNEKFKGKATLTADKSSSTAYMQLSSLTSDDSAVYFCARDGPWFAYWGQGTLVTVSA VL: NIVMTQSPKSMSMSVGERVTLTCKASENVVTYVSWYQQKPEQSPKLLIYGASNRYTGVPDRFTGSGSATDFTLTISSVQAEDLADYHCGQGYSYPYTFGGGTKLEIK	2.5	3.6	7.2	3.1	0.5	1.7	2.3	10.0	0.8	11.6	3.2 ± 0.6 % of injected dose per gram of tissue	2.2 ± 0.3 % of injected dose per gram of tissue	1.1 ± 0.3 % of injected dose per gram of tissue	2.6 ± 0.4 % of injected dose per gram of tissue	17.1 ± 3.1 % of injected dose per gram of tissue	4.6 ± 0.7 % of injected dose per gram of tissue	3.4 ± 0.9 % of injected dose per gram of tissue	0.80 ± 0.23 % of injected dose per gram of tissue	9.5 ± 0.3 % of injected dose per gram of tissue	0.69 ± 0.20 % of injected dose per gram of tissue	tumor, % of injected dose per gram of tissue [2]: 8.0 ± 3.2 % of injected dose per gram of tissue; % bound to control cells (melanoma) [5]: 0.77 ± 0.08%; % bound to tumor cells (human colon carcinoma) [6]: 14.32 ± 0.92%
